Data as given in patent US7405286B2, “Stars—A muscle-specific actin-binding protein” (The Board of Regents of the University of Texas System, priority 2002, dated 2008).
Entries after “also recorded” stand apart in the source; their conditions may differ.

B1: Del234-279: larger internal STARS deletion mutant within the conserved region (protein)
chain: MAPGEKESGEGPAKSALRKIRTATLVISLARGWQQWANENSIRQAQEPTGWLPGGTQDSPQAPKPITPPTSHQKAQSAPKSPPRLPEGHGDGQSSEKAPEVSHIKKKEVSKTVVSKTYERGGDVSHLSHRYERDAGVLEPGQPENDIDRILHSHGSPTRRRKCANLVSELTKGWRVMEQEEPTWRSDSVDTEDSGYGGEAEERPEQDGVQVAVVRIKRPLPSQVNRFTEKLNCHKGDEGYGRPKEGTKTAERAKRAEEHIYREMMDMCFIICTMARHRRDGKIQVTFGDLFDRYVRISDKVVGILMRARKHGLVDFEGEMLWQGRDDHV
modifications: left off: small tags and cut ends
notes: larger internal STARS deletion mutant within the conserved region
B2: N346: STARS deletion mutant lacking residues from the carboxy-terminus into the conserved region (protein)
chain: MAPGEKESGEGPAKSALRKIRTATLVISLARGWQQWANENSIRQAQEPTGWLPGGTQDSPQAPKPITPPTSHQKAQSAPKSPPRLPEGHGDGQSSEKAPEVSHIKKKEVSKTVVSKTYERGGDVSHLSHRYERDAGVLEPGQPENDIDRILHSHGSPTRRRKCANLVSELTKGWRVMEQEEPTWRSDSVDTEDSGYGGEAEERPEQDGVQVAVVRIKRPLPSQVNRFTEKLNCKAQQKYSPVGNLKGRWQQWADEHIQSQKLNPFSEEFDYELAMSTRLHKGDEGYGRPKEGTKTAERAKRAEEHIYREMMDMCFIICTMARHRRDGKIQVTFGDLFDRYVRISDK
modifications: left off: small tags and cut ends
notes: STARS deletion mutant lacking residues from the carboxy-terminus into the conserved region
B3: N323: STARS deletion mutant lacking residues from the carboxy-terminus into the conserved region (protein)
chain: MAPGEKESGEGPAKSALRKIRTATLVISLARGWQQWANENSIRQAQEPTGWLPGGTQDSPQAPKPITPPTSHQKAQSAPKSPPRLPEGHGDGQSSEKAPEVSHIKKKEVSKTVVSKTYERGGDVSHLSHRYERDAGVLEPGQPENDIDRILHSHGSPTRRRKCANLVSELTKGWRVMEQEEPTWRSDSVDTEDSGYGGEAEERPEQDGVQVAVVRIKRPLPSQVNRFTEKLNCKAQQKYSPVGNLKGRWQQWADEHIQSQKLNPFSEEFDYELAMSTRLHKGDEGYGRPKEGTKTAERAKRAEEHIYREMMDMCFIICTMARH
modifications: left off: small tags and cut ends
notes: as for B2
B4: N304: STARS deletion mutant lacking residues from the carboxy-terminus into the conserved region (protein)
chain: MAPGEKESGEGPAKSALRKIRTATLVISLARGWQQWANENSIRQAQEPTGWLPGGTQDSPQAPKPITPPTSHQKAQSAPKSPPRLPEGHGDGQSSEKAPEVSHIKKKEVSKTVVSKTYERGGDVSHLSHRYERDAGVLEPGQPENDIDRILHSHGSPTRRRKCANLVSELTKGWRVMEQEEPTWRSDSVDTEDSGYGGEAEERPEQDGVQVAVVRIKRPLPSQVNRFTEKLNCKAQQKYSPVGNLKGRWQQWADEHIQSQKLNPFSEEFDYELAMSTRLHKGDEGYGRPKEGTKTAERAKRAEE
modifications: left off: small tags and cut ends
notes: as for B2
B5: N279: STARS deletion mutant lacking residues from the carboxy-terminus into the conserved region (protein)
chain: MAPGEKESGEGPAKSALRKIRTATLVISLARGWQQWANENSIRQAQEPTGWLPGGTQDSPQAPKPITPPTSHQKAQSAPKSPPRLPEGHGDGQSSEKAPEVSHIKKKEVSKTVVSKTYERGGDVSHLSHRYERDAGVLEPGQPENDIDRILHSHGSPTRRRKCANLVSELTKGWRVMEQEEPTWRSDSVDTEDSGYGGEAEERPEQDGVQVAVVRIKRPLPSQVNRFTEKLNCKAQQKYSPVGNLKGRWQQWADEHIQSQKLNPFSEEFDYELAMSTRL
modifications: left off: small tags and cut ends
notes: as for B2
B6: C96: STARS deletion mutant within the conserved region (protein)
chain: HKGDEGYGRPKEGTKTAERAKRAEEHIYREMMDMCFIICTMARHRRDGKIQVTFGDLFDRYVRISDKVVGILMRARKHGLVDFEGEMLWQGRDDHV
modifications: left off: small tags and cut ends
notes: STARS deletion mutant within the conserved region

Columns and labels:
SM22 promoter = experiment: SM22-luciferase reporter assay in transiently transfected COS cells; type: cell-based; conditions: for effect on SRF / SM22 promoter activation by STARS, in words (discussion): COS cells transfected with STARS
From the text: STARS Expression Plasmids. STARS expression constructs were generated using the pcDNA3.1 mammalian expression vector (Invitrogen) which was modified to contain an amino-terminal Myc-tag. Constitutively active RhoA (L63) and C3 transferase in Prk5 were generously provided by Dr. Alan Hall (University College, London, United Kingdom). The SM22-luciferase reporter 1343 bp promoter has been previously described (Li et al., 1995). The smooth muscle α actin-luciferase reporter contained the 4 kb promoter region ligated into the pBL3basic vector (Promega). The ANF reporter contained the 638 bp promoter region (a generous gift from Dr. Mona Nemer, Universite de Montreal, Montreal, Quebec, Canada). The 4× cfos reporter contained four tandem copies of the cfos CArG box with flanking sequences, as described (Chang et al., 2001). CMV-lacZ (Promega) was used as an internal control for transfection efficiency.
(§1) Transient Transfections, Reporter Assays and Immunofluorescence Microscopy. COS cells were maintained in DMEM with 10% FBS. Eighteen hours after plating, the medium was changed to serum-free medium and transfections were performed at 50% confluency using FuGENE reagent-6 (Roche Molecular Biochemicals) following manufacturer's instructions. Each transfection used 0.15 μg of plasmid DNA for the reporter assays, and 0.5-1.0 μg immunohistochemistry. Cytochalasin D 2 μM (Sigma-Aldrich), and Y-27632 75 μM (Tocris) were added directly just after transfection. Latrunculin B 0.5 μM (dissolved in 10% ethanol, Calbiochem) was added 12 hr after transfection and 10% ethanol (final concentration 0.01%) was added to control wells. Cells were harvested 36 hr after transfection and their luciferase and β-galactosidase activity were measured.

F-actin = experiment: Immunofluorescence / Phalloidin-TRITC staining of transfected COS cells; type: cell-based; conditions: for stress fibers observed: STARS-transfected COS cells, 2 μM CD or 0.5 μM LB, data not shown; for association with F-actin / actin stress fibers / bundling of actin stress fibers: transfected COS cells, Myc-tagged proteins
Experimental: as §1
For measuring immunofluorescence, cells were rinsed with PBS and fixed in 4% paraformaldehyde for 10 min on ice. After rinsing with PBS, COS cells were incubated in 0.1% Triton X-100 in PBS for 5 min on ice. For rat neonatal cardiomyocytes, 1% Triton X-100 in PBS was used. Cells were blocked for 20 min at room temperature in 0.5% BSA in PBS for COS cells and in 1% BSA plus 3% goat serum in PBS for rat cardiomyocytes. Then, cells were incubated with first antibody diluted in 0.5% BSA in PBS for 30-60 min at room temperature or overnight at 4° C. Anti c-myc monoclonal antibody 9E10 (Santa Cruz) was used at a 1:200 dilution. Other antibodies were anti α-actinin monoclonal antibody (1:400; Sigma-Aldrich), α-tubulin antibody (1:2000; Sigma-Aldrich) and anti-vimentin antibody (1:500; Sigma-Aldrich). Secondary antibodies were anti mouse/rabbit IgG FITC or Texas red (Vector) used at a 1:200 dilution incubated with or without Phalloidin-TRITC (1:500; Sigma Aldrich).

actin = experiment: Co-immunoprecipitation of Myc-tagged proteins with actin in COS cells; type: binding; conditions: anti-Myc immunoprecipitation, anti-actin Western blot
Experimental: Western Blot and Co-immunoprecipitation Assay. Immunoprecipitation and western blot analysis was performed as described previously (Lu et al., 2000). For immunoprecipitation, cells were incubated with 1 μg anti c-myc polyclonal antibody A14 (Santa Cruz). Western blots were performed with anti-actin monoclonal antibody C4 (1:100; Roche Molecular Biochemicals) or anti c-myc monoclonal antibody 9E10 (1:1000; Santa Cruse) followed by incubation with secondary antibody HRP-conjugated anti mouse-IgG (Santa Cruse, Vector). To detect signals, blots were incubated with ECL (Santa Cruz) for 1 min, and exposed to film (Eastman Kodak Co).

Molecule | co-immunoprecipitation with actin (actin) | association with F-actin / actin stress fibers (F-actin) | bundling of actin stress fibers (F-actin) | also measured
C=C1[C@@H](C)[C@H]2[C@H](Cc3ccccc3)NC(=O)[C@]23[C@H](OC(C)=O)/C=C/[C@@](C)(O)C(=O)[C@@H](C)C/C=C/[C@H]3[C@@H]1O [CD, cytochalasin D, reference compound] | – | – | – | increase of SM22 promoter activity by the agent itself (SM22 promoter; COS cells, 2 μM CD, without STARS): 8 fold; stress fibers observed (F-actin): only short fragments of disrupted stress fibers
C/C1=C/C(=O)O[C@@H]2C[C@@H](CC[C@H](C)/C=C\CC1)O[C@@](O)([C@@H]1CSC(=O)N1)C2 [LB, latrunculin B, reference compound] | – | – | – | effect on SRF / SM22 promoter activation by STARS, in words (discussion) (SM22 promoter): inhibit the activity of STARS; SM22-luciferase activity under LB treatment (SM22 promoter; COS cells, 0.5 μM LB, even in cells transfected with STARS): abolished; stress fibers observed (F-actin): only short fragments of disrupted stress fibers
C[C@@H](N)[C@H]1CC[C@H](C(=O)Nc2ccncc2)CC1 [Y-27632, reference compound] | – | – | – | effect on SRF / SM22 promoter activation by STARS, in words (discussion) (SM22 promoter): only partially inhibits; effect on SRF / SM22 promoter activation by STARS, in words (discussion) (SM22 promoter; listed as Y27632): decreased SM22 promoter activity significantly; reduction of the stimulatory activity of STARS on the SM22 promoter (SM22 promoter; COS cells, Y-27632 75 μM): 55%
RhoA L63: constitutively active RhoA mutant, expression vector [reference compound] | – | – | – | activation of the SM22 promoter (SM22 promoter; COS cells, STARS and RhoA L63 together): higher levels; activation of the SM22 promoter (SM22 promoter; COS cells, STARS or RhoA (L63) expression vector alone): comparable levels
B1 | failed to co-immunoprecipitate | able to associate with F-actin | lost the ability to bundle actin fibers | –
B2 | did not bind actin | did not affect the association with F-actin | abolished the ability of STARS to bundle actin stress fibers | –
B3 | did not bind actin | did not affect the association with F-actin | abolished the ability of STARS to bundle actin stress fibers | –
B4 | did not bind actin | did not affect the association with F-actin | abolished the ability of STARS to bundle actin stress fibers | –
B5 | did not bind actin | did not affect the association with F-actin | abolished the ability of STARS to bundle actin stress fibers | –
B6 | – | did not affect the association with F-actin; also recorded: just associates with actin stress fibers | abolished the ability of STARS to bundle actin stress fibers | –
